B1: CDC25B (parent)
chain: KSPIAPCSLDKRVILIFHCEFSSE

Variants of: B1
Experiment: protein stability index of a GFP-peptide fusion (GPS, HEK-293T) (PSI 1-6); higher = more stable
Conditions: c terminus: a fixed tail appended
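Also: lentivirally expressed fusions sorted by FACS into six bins by GFP to DsRed ratio, PSI derived from sequencing read proportions per bin multiplied by bin number.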

In order of falling protein stability index:
1. KSPIAPCSLDKRVILIFHCEFWSE  4.72
2. KSPIAQCSLDKRVILIFHCEFSSE  4.6
3. KSPIAPCSLDVRVILIFHCEFSSE  4.34
4. KSPIAPCSLDKRVILIFHSEFSSE  4.17
5. KSPIAPCSLDKRVILIFHQEFSSE  4.16
6. KSPIAPCSLPKRVILIFHCEFSSE  3.83
7. KSPIAPCSLDKRVILIFHCSFSSE  3.75
8. KSPIAPCSLDKRVILIFHCNFSSE  3.58
9. KSPIAPCSLDKRVILIFFCEFSSE  3.53
10. KSMIAPCSLDKRVILIFHCEFSSE  3.46
11. KSPIAPCSLDKRVILIFHCEFASE  3.41
12. KSPIAPCSLDKRVILIFACEFSSE  3.34
13. KSPIAPCSLDKRVILIFSCEFSSE  3.34
14. KSPIAPCSLTKRVILIFHCEFSSE  3.32
15. KSPIAPISLDKRVILIFHCEFSSE  3.17
16. KYPIAPCSLDKRVILIFHCEFSSE  3.15
17. KSPIAPCSLDKRVILIDHCEFSSE  3.13
18. KSPIAPCSLDKRVILIFDCEFSSE  3.1
19. KSPIAFCSLDKRVILIFHCEFSSE  3.05
20. KSPIAPCSLDKRVILIFHREFSSE  2.96
21. KSPIAPCSLAKRVILIFHCEFSSE  2.95
22. KSPIAPCSLDKRVFLIFHCEFSSE  2.94
23. KSPIAPCSLWKRVILIFHCEFSSE  2.94
24. KSPIAPCSLDKRVILCFHCEFSSE  2.93
25. KSPIAPCSLDKRVILYFHCEFSSE  2.91
26. KSPIAPCSLDMRVILIFHCEFSSE  2.9
27. KSPIAPCSLDKRVILIFHCGFSSE  2.81
28. KSPIAPCSLDKRVILIFHIEFSSE  2.77
29. KSPIAPCSLDKRVILIEHCEFSSE  2.76
30. KSPIAPCSLDKRVILIFHPEFSSE  2.75
31. KSNIAPCSLDKRVILIFHCEFSSE  2.73
32. KSPIAPCSLDFRVILIFHCEFSSE  2.69
33. KSPIAPCSLVKRVILIFHCEFSSE  2.67
34. KSHIAPCSLDKRVILIFHCEFSSE  2.63
35. KSPIAPCSLDKRVILIFHCDFSSE  2.58
36. KSPIAPNSLDKRVILIFHCEFSSE  2.54
37. KSPIAPCSLDKRVILNFHCEFSSE  2.54
38. KSPIAPCSLDKRVILINHCEFSSE  2.54
39. KSPIAGCSLDKRVILIFHCEFSSE  2.54
40. KSPIAPCSLDKRVILRFHCEFSSE  2.5
41. KSPIAPCSLDKRVILIFHCEFQSE  2.5
42. KSPIAPCSLMKRVILIFHCEFSSE  2.48
43. KSPIAPCSLDKRVILIIHCEFSSE  2.47
44. KSPIAPCSLDKRVILIFKCEFSSE  2.45
45. KSPIAPCSLDKRVILIFPCEFSSE  2.44
46. KSIIAPCSLDKRVILIFHCEFSSE  2.38
47. KSPIAPCSLDKRVILIPHCEFSSE  2.36
48. KSPIAPCSLDLRVILIFHCEFSSE  2.35
49. KSPIAPCSLDKRVILIFHDEFSSE  2.34
50. KSPIAPCSLDKRVILIKHCEFSSE  2.33
51. KSPIAPCSLDYRVILIFHCEFSSE  2.32
52. KSPIAPCSLDKRVILIFHCEFYSE  2.31
53. KSPIAPCSLDKRVILIFHWEFSSE  2.31
54. KSPIAPCSLSKRVILIFHCEFSSE  2.26
55. KSPIAPCSLDKRVPLIFHCEFSSE  2.25
56. KSAIAPCSLDKRVILIFHCEFSSE  2.25
57. KSPIAPCSLDKRVILIFHCEFFSE  2.21
58. KSPIAPCSLDKRVILICHCEFSSE  2.19
59. KSPIAPCSLDKRVILTFHCEFSSE  2.18
60. KSTIAPCSLDKRVILIFHCEFSSE  2.17
61. KSWIAPCSLDKRVILIFHCEFSSE  2.17
62. KSPIAPCSLDQRVILIFHCEFSSE  2.16
63. KSPIAPMSLDKRVILIFHCEFSSE  2.15
64. KSPIAPSSLDKRVILIFHCEFSSE  2.13
65. KSPIAPCSLIKRVILIFHCEFSSE  2.12
66. KSPIAPCSLDHRVILIFHCEFSSE  2.1
67. KSPIAPCSLDKRVTLIFHCEFSSE  2.1
68. KSPIAPCSLDKRVILIFHCEFHSE  2.09
69. KSPIAPCSLDKRVILIFHCEFKSE  2.08
70. KSPIAPCSLDKRVILIFHYEFSSE  2.08
71. KSPIAPCSLHKRVILIFHCEFSSE  2.05
72. KSPIAPASLDKRVILIFHCEFSSE  2.03
73. KSPIAPCSLDKRVILIFHKEFSSE  2.03
74. KSPIAPCSLDKRVILSFHCEFSSE  2.01
75. KSPIAPCSLDKRVNLIFHCEFSSE  1.96
76. KSPIAPCSLDKRVILIAHCEFSSE  1.92
77. KSGIAPCSLDKRVILIFHCEFSSE  1.9
78. KSPIAPCSLDKRVILIFMCEFSSE  1.88
79. KSPIAPCSLDKRVILIFICEFSSE  1.86
80. KSPIAPCSLDKRVILISHCEFSSE  1.8
81. KSPIAPCSLDKRVILITHCEFSSE  1.8
82. KSPIAPCSLDKRVILIRHCEFSSE  1.69
83. KIPIAPCSLDKRVILIFHCEFSSE  1.68
84. KSPIAPCSLDKRVILHFHCEFSSE  1.68
85. KSPIAPCSLYKRVILIFHCEFSSE  1.66
86. KSPIAPCSLDKRVILIFHCKFSSE  1.64
87. KSPIAPCSLDKRVCLIFHCEFSSE  1.54
88. KSPIAPCSLDKRVILAFHCEFSSE  1.52
89. KSPIAVCSLDKRVILIFHCEFSSE  1.39
90. KSPIAPCSLDKRVILLFHCEFSSE  1.38
91. KMPIAPCSLDKRVILIFHCEFSSE  1.13
92. KSPIAPCSLDKRVILEFHCEFSSE  1.07
93. KSPIAPCSLDKRVILVFHCEFSSE  1.06
94. KSPIAPCSLDKRVILWFHCEFSSE  1.05

— the supplement of paper PMC10567573
